The target in assay [1] is HA of the Shandong 1993 strain (A/Shandong/9/1993 H3N2), soluble, biotinylated (Influenza A virus A/Shandong/9/1993 …, UniProt H9XM74, strain, biotin (site not stated)). Description: BLI. The conditions noted are these: both partners purified.
Assay [2] has as its target HA of the Beijing 1989 strain (A/Beijing/353/1989 H3N2), soluble, biotinylated (Influenza A virus A/Beijing/353/1989 …, UniProt O11283, strain, biotin (site not stated)). Description: BLI. Particulars: both partners purified.

B1: H3v-47 Fab (Fab, V domains shown)
VH: QVQLVQSGAEVKKPGSSVRVSCKASGDTFSSYSITWVRQAPGHGLQWMGGIFPIFGSTNYAQKFDDRLTITTDDSSRTVYMELTSLRLEDTAVYYCARGASKVEPAAPAYSDAFDMWGQGTLVTVSS
VL: DIVMTQSPGTLSLSPGERATLSCRTSQGVSSSYLAWYQQKPGQAPRLLISGSSSRATGIPDRFSGSGSGRDFTLTISRLEPEDSAVYYCQQYATSPTFGQGTRVEIK
Take B1: the binding result in assay [1] and in assay [2] was “binds” throughout.

B2: H3v-47 IgG (antibody, V domains shown)
VH: QVQLVQSGAEVKKPGSSVRVSCKASGDTFSSYSITWVRQAPGHGLQWMGGIFPIFGSTNYAQKFDDRLTITTDDSSRTVYMELTSLRLEDTAVYYCARGASKVEPAAPAYSDAFDMWGQGTLVTVSS
VL: DIVMTQSPGTLSLSPGERATLSCRTSQGVSSSYLAWYQQKPGQAPRLLISGSSSRATGIPDRFSGSGSGRDFTLTISRLEPEDSAVYYCQQYATSPTFGQGTRVEIK
notes: also called mAb H3v-47; source: human hybridoma cell line, serum-free medium, purified (protein G); copies: 2 + 2
In the case of B2, the binding result in assay [1] and in assay [2] was “binds” throughout.

These data come from publication PMC6039445 (Nature Communications, 2018).
